Numbering of substitutions follows the chain as printed.
Experiments:
[1] = biological target: cell surface receptor composed of FGFR1c and co-receptor beta-Klotho (KLB) (human, UniProt P11362 22-822; Q86Z14 1-1044); experiment: cell-based or functional assay; as to Mean E max, Luciferase reporter gene assay: reference of the scale not given here
human beta-Klotho (KLB) = biological target: T1, human beta-Klotho (KLB) (human, UniProt Q86Z14 53-997); experiment: BLI off-rate screening (Octet), crude supernatant;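 also: supernatants tested at 25 µg/mL, dissociation from biosensors recorded in D-PBS with 0.1% BSA over 1800 s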
T1 construct: Bought protein; also called human KLB; β-Klotho
T1 sequence (looked up): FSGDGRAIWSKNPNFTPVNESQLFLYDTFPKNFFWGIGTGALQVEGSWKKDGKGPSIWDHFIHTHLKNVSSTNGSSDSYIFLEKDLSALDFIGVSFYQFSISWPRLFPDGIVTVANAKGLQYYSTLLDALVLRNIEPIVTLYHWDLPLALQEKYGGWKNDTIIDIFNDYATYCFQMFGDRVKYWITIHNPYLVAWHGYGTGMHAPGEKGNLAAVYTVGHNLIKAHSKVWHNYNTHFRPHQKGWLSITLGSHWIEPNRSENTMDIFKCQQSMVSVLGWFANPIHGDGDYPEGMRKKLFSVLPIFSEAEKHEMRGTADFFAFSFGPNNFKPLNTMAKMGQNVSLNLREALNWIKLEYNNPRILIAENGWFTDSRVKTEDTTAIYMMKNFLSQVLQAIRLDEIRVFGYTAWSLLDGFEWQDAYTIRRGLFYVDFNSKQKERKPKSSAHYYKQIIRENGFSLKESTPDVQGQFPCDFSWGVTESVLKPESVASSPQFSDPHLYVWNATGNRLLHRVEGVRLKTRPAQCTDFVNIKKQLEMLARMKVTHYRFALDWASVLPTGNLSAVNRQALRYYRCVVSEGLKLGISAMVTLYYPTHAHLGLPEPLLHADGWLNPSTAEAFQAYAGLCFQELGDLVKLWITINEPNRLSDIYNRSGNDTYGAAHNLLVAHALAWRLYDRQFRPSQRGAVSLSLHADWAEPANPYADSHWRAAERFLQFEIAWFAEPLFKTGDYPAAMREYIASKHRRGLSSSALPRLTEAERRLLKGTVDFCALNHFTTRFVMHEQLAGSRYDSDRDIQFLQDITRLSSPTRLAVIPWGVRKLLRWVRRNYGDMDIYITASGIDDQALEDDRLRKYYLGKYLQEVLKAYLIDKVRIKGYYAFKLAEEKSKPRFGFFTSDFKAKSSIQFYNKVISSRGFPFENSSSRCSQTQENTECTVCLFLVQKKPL

Chain of cell surface receptor composed of FGFR1c and co-receptor beta-Klotho (KLB) (P11362 22-822, chain 1 of 2): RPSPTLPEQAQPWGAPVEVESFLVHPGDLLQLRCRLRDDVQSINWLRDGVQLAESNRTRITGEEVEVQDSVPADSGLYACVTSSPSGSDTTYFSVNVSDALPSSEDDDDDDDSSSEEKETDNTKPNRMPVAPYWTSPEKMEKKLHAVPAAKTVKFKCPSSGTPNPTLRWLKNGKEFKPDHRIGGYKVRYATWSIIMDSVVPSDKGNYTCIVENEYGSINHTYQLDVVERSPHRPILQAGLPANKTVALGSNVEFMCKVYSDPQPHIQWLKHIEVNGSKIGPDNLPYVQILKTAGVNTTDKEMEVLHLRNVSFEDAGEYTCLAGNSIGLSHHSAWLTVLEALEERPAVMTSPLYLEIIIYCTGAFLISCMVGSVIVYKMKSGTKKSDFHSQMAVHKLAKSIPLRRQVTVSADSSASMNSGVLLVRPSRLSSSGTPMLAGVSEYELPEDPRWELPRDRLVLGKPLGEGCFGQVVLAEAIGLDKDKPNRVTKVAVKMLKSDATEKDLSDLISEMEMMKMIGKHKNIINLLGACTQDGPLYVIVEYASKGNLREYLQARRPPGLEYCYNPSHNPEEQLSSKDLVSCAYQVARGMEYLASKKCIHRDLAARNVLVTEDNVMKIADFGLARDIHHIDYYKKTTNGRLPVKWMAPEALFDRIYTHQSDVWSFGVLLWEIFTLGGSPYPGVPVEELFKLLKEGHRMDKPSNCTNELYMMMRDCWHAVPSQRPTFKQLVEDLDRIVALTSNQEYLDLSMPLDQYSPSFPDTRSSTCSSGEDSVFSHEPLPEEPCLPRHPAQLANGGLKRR
Chain of cell surface receptor composed of FGFR1c and co-receptor beta-Klotho (KLB) (Q86Z14 whole entry, chain 2 of 2): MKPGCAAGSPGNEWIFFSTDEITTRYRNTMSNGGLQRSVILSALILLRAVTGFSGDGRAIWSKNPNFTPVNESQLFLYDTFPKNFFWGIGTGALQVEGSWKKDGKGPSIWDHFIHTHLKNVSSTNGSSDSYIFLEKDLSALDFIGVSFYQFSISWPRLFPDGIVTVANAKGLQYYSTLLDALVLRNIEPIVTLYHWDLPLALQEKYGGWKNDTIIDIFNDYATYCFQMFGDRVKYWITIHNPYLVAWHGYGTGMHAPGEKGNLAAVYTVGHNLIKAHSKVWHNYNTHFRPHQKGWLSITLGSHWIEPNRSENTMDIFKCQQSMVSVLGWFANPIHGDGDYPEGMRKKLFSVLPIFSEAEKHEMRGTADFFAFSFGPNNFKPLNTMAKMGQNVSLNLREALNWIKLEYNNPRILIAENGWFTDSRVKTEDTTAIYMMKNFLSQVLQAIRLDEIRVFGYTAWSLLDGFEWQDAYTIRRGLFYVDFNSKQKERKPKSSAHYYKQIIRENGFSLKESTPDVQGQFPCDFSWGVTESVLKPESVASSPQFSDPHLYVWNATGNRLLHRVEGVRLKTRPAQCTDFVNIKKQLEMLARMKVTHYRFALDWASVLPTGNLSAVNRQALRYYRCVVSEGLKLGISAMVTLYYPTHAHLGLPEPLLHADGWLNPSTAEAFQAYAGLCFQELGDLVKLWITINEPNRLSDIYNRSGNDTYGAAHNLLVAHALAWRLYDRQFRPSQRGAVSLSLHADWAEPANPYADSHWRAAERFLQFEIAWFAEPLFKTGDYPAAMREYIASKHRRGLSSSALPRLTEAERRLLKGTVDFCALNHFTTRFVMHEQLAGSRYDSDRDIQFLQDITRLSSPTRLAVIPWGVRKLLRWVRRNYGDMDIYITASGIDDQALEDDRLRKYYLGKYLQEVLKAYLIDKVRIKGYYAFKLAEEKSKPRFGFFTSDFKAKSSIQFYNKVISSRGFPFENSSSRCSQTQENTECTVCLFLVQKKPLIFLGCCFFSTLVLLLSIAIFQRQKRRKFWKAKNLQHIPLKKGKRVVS

B1: 16H7 light chain variant D95M (antibody, IgG4, V domains shown)
VH: not shown
VL: SYVLTQPPSVSVAPGQTARITCGGNNIGSESVHWYQQKPGQAPVLVVYDDSDRPSGIPERFSGSNSGNTATLTISRVEAGDEADYYCQVWDGNSMHVVFGGGTKLTVLG
notes: IgG4 backbone
- Mean E max, Luciferase reporter gene assay [1]: 8%
- koff (human beta-Klotho (KLB)): 1.4e-05 s⁻¹

B2: 16H7 light chain variant H33N (antibody, IgG4, V domains shown)
VH: not shown
VL: B1 VL with H33N, M95D
notes: IgG4 backbone
- Mean E max, Luciferase reporter gene assay [1]: 113%
- Mean EC50, Luciferase reporter gene assay [1]: 0.165 nM
- koff (human beta-Klotho (KLB)): 0.00011 s⁻¹

B3: 16H7 light chain variant H96V (antibody, IgG4, V domains shown)
VH: not shown
VL: B1 VL with M95D, H96V
notes: IgG4 backbone
- Mean E max, Luciferase reporter gene assay [1]: 91%
- Mean EC50, Luciferase reporter gene assay [1]: 0.13 nM
- koff (human beta-Klotho (KLB)): 4.1e-05 s⁻¹

B4: 16H7 light chain variant H96D (antibody, IgG4, V domains shown)
VH: not shown
VL: B1 VL with M95D, H96D
notes: IgG4 backbone
- Mean E max, Luciferase reporter gene assay [1]: 100%
- Mean EC50, Luciferase reporter gene assay [1]: 0.111 nM
- koff (human beta-Klotho (KLB)): 2.2e-05 s⁻¹

B5: 16H7 light chain variant H33V (antibody, IgG4, V domains shown)
VH: not shown
VL: B1 VL with H33V, M95D
notes: IgG4 backbone
- Mean E max, Luciferase reporter gene assay [1]: 104%
- Mean EC50, Luciferase reporter gene assay [1]: 0.147 nM
- koff (human beta-Klotho (KLB)): 0.00018 s⁻¹

B6: 16H7 light chain variant N93D (antibody, IgG4, V domains shown)
VH: not shown
VL: B1 VL with N93D, M95D
notes: IgG4 backbone
- Mean E max, Luciferase reporter gene assay [1]: 108%
- Mean EC50, Luciferase reporter gene assay [1]: 0.123 nM
- koff (human beta-Klotho (KLB)): 3.8e-05 s⁻¹

B7: 16H7 light chain variant H33T (antibody, IgG4, V domains shown)
VH: not shown
VL: B1 VL with H33T, M95D
notes: IgG4 backbone
- Mean E max, Luciferase reporter gene assay [1]: 99%
- Mean EC50, Luciferase reporter gene assay [1]: 0.114 nM
- koff (human beta-Klotho (KLB)): 0.00014 s⁻¹

B8: 16H7 light chain variant H96Q (antibody, IgG4, V domains shown)
VH: not shown
VL: B1 VL with M95D, H96Q
notes: IgG4 backbone
- Mean E max, Luciferase reporter gene assay [1]: 104%
- Mean EC50, Luciferase reporter gene assay [1]: 0.106 nM
- koff (human beta-Klotho (KLB)): 5e-05 s⁻¹

B9: 16H7 light chain variant D95Y (antibody, IgG4, V domains shown)
VH: not shown
VL: B1 VL with M95Y
notes: IgG4 backbone
- Mean E max, Luciferase reporter gene assay [1]: 4%
- koff (human beta-Klotho (KLB)): 0.00013 s⁻¹

B10: 16H7 light chain variant H96T (antibody, IgG4, V domains shown)
VH: not shown
VL: B1 VL with M95D, H96T
notes: IgG4 backbone
- Mean E max, Luciferase reporter gene assay [1]: 110%
- Mean EC50, Luciferase reporter gene assay [1]: 0.11 nM
- koff (human beta-Klotho (KLB)): 1.8e-05 s⁻¹

B11: 16H7 light chain variant H33I (antibody, IgG4, V domains shown)
VH: not shown
VL: B1 VL with H33I, M95D
notes: IgG4 backbone
- Mean E max, Luciferase reporter gene assay [1]: 104%
- Mean EC50, Luciferase reporter gene assay [1]: 0.121 nM
- koff (human beta-Klotho (KLB)): 9.7e-05 s⁻¹

B12: 16H7 light chain variant H33F (antibody, IgG4, V domains shown)
VH: not shown
VL: B1 VL with H33F, M95D
notes: IgG4 backbone
- Mean E max, Luciferase reporter gene assay [1]: 113%
- Mean EC50, Luciferase reporter gene assay [1]: 0.122 nM
- koff (human beta-Klotho (KLB)): 0.0001 s⁻¹

B13: 16H7 light chain variant H33L (antibody, IgG4, V domains shown)
VH: not shown
VL: B1 VL with H33L, M95D
notes: IgG4 backbone
- Mean E max, Luciferase reporter gene assay [1]: 114%
- Mean EC50, Luciferase reporter gene assay [1]: 0.115 nM
- koff (human beta-Klotho (KLB)): 5.5e-05 s⁻¹

B14: 16H7 light chain variant H33E (antibody, IgG4, V domains shown)
VH: not shown
VL: B1 VL with H33E, M95D
notes: IgG4 backbone
- Mean E max, Luciferase reporter gene assay [1]: 100%
- Mean EC50, Luciferase reporter gene assay [1]: 0.121 nM
- koff (human beta-Klotho (KLB)): 3.6e-05 s⁻¹

B15: 16H7 light chain variant H33Y (antibody, IgG4, V domains shown)
VH: not shown
VL: B1 VL with H33Y, M95D
notes: IgG4 backbone
- Mean E max, Luciferase reporter gene assay [1]: 98%
- Mean EC50, Luciferase reporter gene assay [1]: 0.12 nM
- koff (human beta-Klotho (KLB)): 7.5e-05 s⁻¹

B16: 16H7 light chain variant H33D (antibody, IgG4, V domains shown)
VH: not shown
VL: B1 VL with H33D, M95D
notes: IgG4 backbone
- Mean E max, Luciferase reporter gene assay [1]: 99%
- Mean EC50, Luciferase reporter gene assay [1]: 0.166 nM
- koff (human beta-Klotho (KLB)): 6.8e-05 s⁻¹

B17: 16H7 light chain variant H96Y (antibody, IgG4, V domains shown)
VH: not shown
VL: B1 VL with M95D, H96Y
notes: IgG4 backbone
- Mean E max, Luciferase reporter gene assay [1]: 103%
- Mean EC50, Luciferase reporter gene assay [1]: 0.134 nM
- koff (human beta-Klotho (KLB)): 6.9e-05 s⁻¹

B18: 16H7 light chain variant H96L (antibody, IgG4, V domains shown)
VH: not shown
VL: B1 VL with M95D, H96L
notes: IgG4 backbone
- Mean E max, Luciferase reporter gene assay [1]: 98%
- Mean EC50, Luciferase reporter gene assay [1]: 0.176 nM
- koff (human beta-Klotho (KLB)): 0.00013 s⁻¹

B19: 16H7 light chain variant H33M (antibody, IgG4, V domains shown)
VH: not shown
VL: B1 VL with H33M, M95D
notes: IgG4 backbone
- Mean E max, Luciferase reporter gene assay [1]: 102%
- Mean EC50, Luciferase reporter gene assay [1]: 0.107 nM
- koff (human beta-Klotho (KLB)): 5.2e-05 s⁻¹

B20: 16H7 light chain variant H96S (antibody, IgG4, V domains shown)
VH: not shown
VL: B1 VL with M95D, H96S
notes: IgG4 backbone
- Mean E max, Luciferase reporter gene assay [1]: 102%
- Mean EC50, Luciferase reporter gene assay [1]: 0.097 nM
- koff (human beta-Klotho (KLB)): 3e-05 s⁻¹

B21: 16H7 light chain variant H33S (antibody, IgG4, V domains shown)
VH: not shown
VL: B1 VL with H33S, M95D
notes: IgG4 backbone
- Mean E max, Luciferase reporter gene assay [1]: 103%
- koff (human beta-Klotho (KLB)): 4.6e-06 s⁻¹

B22: 16H7 light chain variant H33A (antibody, IgG4, V domains shown)
VH: not shown
VL: B1 VL with H33A, M95D
notes: IgG4 backbone
- Mean E max, Luciferase reporter gene assay [1]: 96%
- Mean EC50, Luciferase reporter gene assay [1]: 0.121 nM
- koff (human beta-Klotho (KLB)): 0.00013 s⁻¹

B23: 16H7 light chain variant N93C (antibody, IgG4, V domains shown)
VH: not shown
VL: B1 VL with N93C, M95D
notes: IgG4 backbone
- Mean E max, Luciferase reporter gene assay [1]: 107%
- Mean EC50, Luciferase reporter gene assay [1]: 0.148 nM
- koff (human beta-Klotho (KLB)): 5.8e-05 s⁻¹

B24: 16H7 light chain variant H96W (antibody, IgG4, V domains shown)
VH: not shown
VL: B1 VL with M95D, H96W
notes: IgG4 backbone
- Mean E max, Luciferase reporter gene assay [1]: 103%
- Mean EC50, Luciferase reporter gene assay [1]: 0.155 nM
- koff (human beta-Klotho (KLB)): 0.00012 s⁻¹

B25: 16H7 light chain variant H96N (antibody, IgG4, V domains shown)
VH: not shown
VL: B1 VL with M95D, H96N
notes: IgG4 backbone
- Mean E max, Luciferase reporter gene assay [1]: 112%
- Mean EC50, Luciferase reporter gene assay [1]: 0.143 nM
- koff (human beta-Klotho (KLB)): 4.4e-05 s⁻¹

B26: 16H7 light chain variant H33C (antibody, IgG4, V domains shown)
VH: not shown
VL: B1 VL with H33C, M95D
notes: IgG4 backbone
- Mean E max, Luciferase reporter gene assay [1]: 108%
- Mean EC50, Luciferase reporter gene assay [1]: 0.123 nM
- koff (human beta-Klotho (KLB)): 6.8e-05 s⁻¹

B27: 16H7 light chain variant H96G (antibody, IgG4, V domains shown)
VH: not shown
VL: B1 VL with M95D, H96G
notes: IgG4 backbone
- Mean E max, Luciferase reporter gene assay [1]: 95%
- Mean EC50, Luciferase reporter gene assay [1]: 0.13 nM
- koff (human beta-Klotho (KLB)): 0.00015 s⁻¹

B28: 16H7 light chain variant H33G (antibody, IgG4, V domains shown)
VH: not shown
VL: B1 VL with H33G, M95D
notes: IgG4 backbone
- Mean E max, Luciferase reporter gene assay [1]: 102%
- Mean EC50, Luciferase reporter gene assay [1]: 0.12 nM
- koff (human beta-Klotho (KLB)): 9.6e-05 s⁻¹

B29: 16H7 light chain variant N93F (antibody, IgG4, V domains shown)
VH: not shown
VL: B1 VL with N93F, M95D
notes: IgG4 backbone
- Mean E max, Luciferase reporter gene assay [1]: 100%
- Mean EC50, Luciferase reporter gene assay [1]: 0.165 nM
- koff (human beta-Klotho (KLB)): 2.2e-06 s⁻¹

B30: 16H7 light chain variant H96R (antibody, IgG4, V domains shown)
VH: not shown
VL: B1 VL with M95D, H96R
notes: IgG4 backbone
- Mean E max, Luciferase reporter gene assay [1]: 102%
- Mean EC50, Luciferase reporter gene assay [1]: 0.095 nM
- koff (human beta-Klotho (KLB)): 0.00014 s⁻¹

B31: 16H7 light chain variant N93S (antibody, IgG4, V domains shown)
VH: not shown
VL: B1 VL with N93S, M95D
notes: IgG4 backbone
- Mean E max, Luciferase reporter gene assay [1]: 101%
- Mean EC50, Luciferase reporter gene assay [1]: 0.105 nM
- koff (human beta-Klotho (KLB)): 3.4e-05 s⁻¹

B32: 16H7 light chain variant H33Q (antibody, IgG4, V domains shown)
VH: not shown
VL: B1 VL with H33Q, M95D
notes: IgG4 backbone
- Mean E max, Luciferase reporter gene assay [1]: 101%
- Mean EC50, Luciferase reporter gene assay [1]: 0.131 nM
- koff (human beta-Klotho (KLB)): 4.4e-05 s⁻¹

B33: 16H7 light chain variant H96K (antibody, IgG4, V domains shown)
VH: not shown
VL: B1 VL with M95D, H96K
notes: IgG4 backbone
- Mean E max, Luciferase reporter gene assay [1]: 98%
- Mean EC50, Luciferase reporter gene assay [1]: 0.179 nM
- koff (human beta-Klotho (KLB)): 6.4e-05 s⁻¹

B34: 16H7 light chain variant N93R (antibody, IgG4, V domains shown)
VH: not shown
VL: B1 VL with N93R, M95D
notes: IgG4 backbone
- Mean E max, Luciferase reporter gene assay [1]: 100%
- Mean EC50, Luciferase reporter gene assay [1]: 0.186 nM
- koff (human beta-Klotho (KLB)): 5e-05 s⁻¹

B35: 16H7 light chain variant H96E (antibody, IgG4, V domains shown)
VH: not shown
VL: B1 VL with M95D, H96E
notes: IgG4 backbone
- Mean E max, Luciferase reporter gene assay [1]: 100%
- Mean EC50, Luciferase reporter gene assay [1]: 0.122 nM
- koff (human beta-Klotho (KLB)): 1.1e-05 s⁻¹

B36: 16H7 light chain variant N93A (antibody, IgG4, V domains shown)
VH: not shown
VL: B1 VL with N93A, M95D
notes: IgG4 backbone
- Mean E max, Luciferase reporter gene assay [1]: 101%
- Mean EC50, Luciferase reporter gene assay [1]: 0.108 nM
- koff (human beta-Klotho (KLB)): 7.5e-06 s⁻¹

Source: patent US20220010021A1 (Sanofi, published 2022)
